Test results taken from paper PMC2650222 (Biochemistry, 2008).

Target: T1, Pyrococcus furiosus RPP29 (Pyrococcus furiosus, UniProt Q8U007 1-127)
T1 sequence (looked up): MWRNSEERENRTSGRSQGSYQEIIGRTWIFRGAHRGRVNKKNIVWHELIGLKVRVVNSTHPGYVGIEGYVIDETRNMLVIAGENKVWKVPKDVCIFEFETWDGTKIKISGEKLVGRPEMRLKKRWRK
Assay: NMR titration

B1: Pyrococcus furiosus RPP21 (natural protein)
chain: AKYNEKKEKKRIAKERIDILFSLAERVFPYSPELAKRYVELALLVQQKAKVKIPRKWKRRYCKKCHAFLVPGINARVRLRQKRMPHIVVKCLECGHIMRYPYIKEIKKRRKEKMEYGGLVPR
modifications: 15N-labelled (uniform isotope labelling)
B1: binds.
